Source: the supplement of paper PMC9170038

Tested on: K4 kissing-loop RNA reporter
Test: apparent KD of K4 kissing-loop reporter; higher = weaker reporter binding
Conditions: Eterna round: R107
Method: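 RNA-MaP round R107: designed RNA switches with theophylline, tryptophan, arginine or FMN aptamers are transcribed on-chip within common flanks. They are titrated with a labelled K4 kissing-loop RNA reporter in RNA-MaP buffer (100 mM Tris pH 7.5, 80 mM KCl, 4 mM MgCl2), without ligand or with the indicated ligand. Median apparent KD per design.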

[1] = input ligand: theophylline 20 uM
[2] = input ligand: tryptophan 2.4 mM
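Note: bound reporter read as fluorescence of individual clusters on recovered sequencing chips by microscopy, with normalized cluster intensities fitted with a binding model.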

Sequence	apparent KD of K4 kissing-loop reporter (input ligand: FMN 200 uM) [nM]	apparent KD of K4 kissing-loop reporter (input ligand: arginine 13.2 mM) [nM]	apparent KD of K4 kissing-loop reporter (input ligand: none) [nM]	apparent KD of K4 kissing-loop reporter [1] [nM]	apparent KD of K4 kissing-loop reporter [2] [nM]
GUUGAUCAUGGAAGGAGCGCCCAUUGUCGACACGAGUGAUGUUCGUGUCGUUAAUUAUGAGGGCAGGUAGGUCGCCGUGUGCUUU [Soqugebi]	144	103	130	115	128
GUCUGUGUACUAGGAUAUGGUUGCAGGCAGUCAGGUCGCCUUUUCGGCGGCCAGUGAUGUUGGUGGCCAGAAGGAGUACGUGAUG [Raorin]	776	659	731	720	699
AACGUUUUGAGAAGGAGCGCGAUAAGCAGUGAUGUUGCUAAAAUUCUAUUUCAAUUUAAUACGCAGGUAGGUCGCUCAAUACGUA [JR_SSArginiB_Sub020]	143	136	138	156	118
AGGCACGAGCAAGGAUAUCGAGUAGAGUGAUGUUCUGCCUGGGUUGGCUCGUAAGAGCCUUCUCAGCGAGAAGGUGCUCGUGCCU [#2 Same State - FMN A Attempt #20 (HarryS)]	217	511	544	511	944
AUAGUGAGCUCGGCCGCCACUCCACUAUGUCAACAGUAGCUCUGUCAUAACCAGUGAUGUUGGUUGAGGACCGGGAGUUAAGACU [theeternabot_exclusion_KL_Trp_B_34]	193	164	198	195	201
CGCAGUGAUGUUGCUAUAUUUCUUGAUUAACGAGGACCGGUACGGCCGCCACUCGAUUUCUCUCUAAUCCACUAUGUUGUUUAGA [JR_SSTryptoA_Sub002]	390	472	506	524	319
UGCAGUGAUGUUGCGAGUGGCAGAUACGAAGGAGCGUGGUGAGACACAGGUAGGUCGCGUAUUGAAAUUGCUGUCACUAAAAUGC [#7]	448	469	505	483	362
GUUACGCAUGGAAGGAGCGCAGGCUCAACAAAUAGCUCAGUGAUGUUGAGCAUAUUAAUUCUGCAGGUAGGUCGCCAUGUGUAAC [Ex Arginine B K4 25]	531	491	551	536	508
UGUACCGAGUCAGGAUAUGGCGUCGAAAGACGAAUGCUAGUGAUGUUAGGGAUCUGCGAAAGCAGUCCAGAAGGGACUUGGUACU [FmnBS 26 G36]	381	471	653	634	649
UUUGGUUUCUCGGCCGCCACUCGUUGUCUAUCGGCUUCAGGGAUAUAGUGAUGUUAUGUAUAGAAGAGGACCGGGAGAAGGUUCC [ExTryptoB.Dy]	217	169	303	237	165
UUAGGAGUGGAAGGAUAUCCUGGUGUGGGUGAUGUUAGUGAUGUUGAAAGUGCAGUGAUGUUGUGCGGAGAAGGUCCGGUGUUGA [BDazzled - #8 - Exc. FMN B]	147	124	176	243	145
AAGUGAUGUUGUAGUGAUGUUGUGAUGUUGCAGGAUAUAUAGUGAUGUAGAAGGGUAAGUACUGAUGUUGUUAGUGAGUGAUGUU [wwzrrmullin]	111	49.8	87.9	81.1	86.6
ACCUACCAUUAGUGAUGUUAAUGGACGGAAGGAGCGCAGAUAUCUGCAGGUAGGUCGCCGAAGGCUAGACAUUGUCUAGCCAUUA [AK1.1 SS Arginine A]	227	178	197	163	183
CUCGUGGGUUUGAGAGGGUUUGUGGGAAGUGAGGAUAUUUAGGGAGAAAGAAGGCACUAUAAAAUAUAGUGAUGUUAUAUAAGGG [SSFMNA.L]	277	141	325	194	198
UGUGAUGUGUAGUGUUAUGUUUUGCGGGAUACCAGAGUCUUUUUAUUCCCUUGGCAGCUUGAGUGAUGUUUGAUGCUGUUCUUGU [cxxdmullin]	453	349	439	410	352
UACUAUAUUCUGUCGUUUUUAUUAGUUUGUCAGGAUAUCGUUUAUUCGAGAAGGGACACUAUCUAGUGAUGUUAGAUAUUUCUUU [JR_Nu3_ExcFMNA_Sub030]	77.9	102	92.7	93.2	72.9
